One molecule from US20170355730A1 can be followed below.

Starred links: 1 amine or outer side, 2 acyl side, 3 side chain; linkers in the order of their positions; H or OH if unused. Non-standard residues stand in square brackets, D forms with d. Primed or numbered codes have the meaning given here. No end group written: not given here. Trimesoyl = O=C(c1cc(C(=O)[*:2])cc(C(=O)[*:3])c1)[*:1]; Phe(4-F) = N[C@@H](Cc1ccc(F)cc1)C(=O)O; dPhe(4-F) = N[C@H](Cc1ccc(F)cc1)C(=O)O; 2Nal = N[C@@H](Cc1ccc2ccccc2c1)C(=O)O; Pip′ = L-homoproline (pipecolyl); Dap = NC[C@H](N)C(=O)O

The target in assay [1] is Pin1 (Example 6, construct not stated) (human) (UniProt Q13526). Briefly: FA competition; competitor probe FITC-labeled peptide 1 (100 nM), Pin1 400 nM.
Assay [2] has the same target. Briefly: cell-based or functional assay.
The target is the same in assay [3]. Briefly: fluorescence anisotropy.
Assay [4] deals with bovine serum albumin (bovine) (UniProt P02769). Briefly: binding test against a panel of arbitrarily selected proteins.
bovine serum albumin (bovine), sequence (P02769 25-607 limits assumed): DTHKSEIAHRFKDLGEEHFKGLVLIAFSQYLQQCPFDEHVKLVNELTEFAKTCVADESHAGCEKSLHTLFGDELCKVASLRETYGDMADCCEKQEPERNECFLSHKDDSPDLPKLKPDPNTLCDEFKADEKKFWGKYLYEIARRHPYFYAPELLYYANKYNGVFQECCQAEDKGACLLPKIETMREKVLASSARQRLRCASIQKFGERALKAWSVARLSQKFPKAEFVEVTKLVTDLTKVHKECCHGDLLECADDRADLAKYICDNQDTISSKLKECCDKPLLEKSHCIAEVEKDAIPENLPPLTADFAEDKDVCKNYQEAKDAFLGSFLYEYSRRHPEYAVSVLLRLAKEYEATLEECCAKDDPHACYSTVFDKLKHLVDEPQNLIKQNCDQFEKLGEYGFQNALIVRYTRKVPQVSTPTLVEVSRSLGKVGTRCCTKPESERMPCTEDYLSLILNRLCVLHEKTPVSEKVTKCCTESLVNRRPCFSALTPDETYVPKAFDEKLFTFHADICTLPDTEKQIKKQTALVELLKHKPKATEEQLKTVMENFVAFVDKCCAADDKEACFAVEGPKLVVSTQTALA

B1: peptide 37 (Table 18) (peptide)
peptide: Trimesoyl-[dPhe(4-F)][Phe(4-F)][dT][Pip′][2Nal]RA[dF][Dap]F[2Nal]RRRR[Dap]K
modifications: linker (positions not given here) via Trimesoyl; not fully specified (bridges); printed as bicyclo[Tm-(D-4-Fpa-Fpa-D-Thr-Pip-Nal-Arg-Ala-D-Phe)-Dap-(Phe-Nal-Arg-Arg-Arg-Arg-Dap)]-Lys
In assay [1], B1 displayed a half-maximal inhibitory concentration (IC50) of 190 nM. In assay [2], the IC50 of HeLa cell growth (MTT assay) worked out at 1000 nM; the IC50 of Pin1 catalytic activity toward Suc-Ala-Glu-Pro-Phe-pNA amounted to 170 nM; the PML protein level in HeLa cells (western blot), 0.2 µM inhibitor was determined as 1.8 fold; the PML protein level in HeLa cells (western blot), plateau at ˜1 µM inhibitor was 3.3 fold. In assay [3], this molecule displayed a Kd of 120 nM. For the same molecule, the Kd in assay [4] turned out to be 20000 nM.

Usually IC50 stands for the concentration at which inhibition is half-maximal. As a reminder, the Kd is the constant that tells how readily two partners part at equilibrium. Higher therefore signals lower affinity.
